Experimental data published in the nanobody polyreactivity screen of Harvey et al. (2022).

Assay: yeast display, Sf9 membrane polyspecificity reagent, FACS + sequencing; frameworks hold sequencing errors
Summary of the method: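 Nanobodies from a synthetic yeast display library (Saccharomyces cerevisiae BJ5465), induced 36–48 hours with galactose, were stained 1 hour at 4 °C with 10% biotinylated, detergent-solubilized Sf9 membrane reagent, enriched on streptavidin microbeads, then FACS-sorted. Anti-HA (expression) and streptavidin (reagent binding) fluorescence set low and high (top ~1%) gates. Polyreactivity labels come from the gate of origin. Genes were colony-PCR amplified, MiSeq 2 × 250 sequenced and filtered by CDR length.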

| Sequence | polyreactivity (PSR sort gate) |
| --- | --- |
| QVQLVESGGGLVQAGGSLPLSCAASGFIFGTNTMGWYRQAPGKEREMVAAITSVGSTNYADSVKGRFTISRDNAKNTVYLQMNSLKPEDTAVYYCPATLYYQYGGDYWGQGTQVTVSS | low polyreactivity |
| QVQLVESGGGLVQAGGSLPLSCAASGGTFRGNAMGWYRQAPGKERELVAAITGSGGSTYYADSVTGRFTISRDNAKNTVYLQMNSLKPEDSAVYYCAVDRASRRTYNQYGYWGQGTQVTVSS | high polyreactivity |
| QVQLVESGGGLVQAGGSLPLSCAASGITIYGYAMGWYRQAPGKESELVAAMSTSGGRTYYADSVKGRFTISRDNAKNTVYLQMNSMKPEDTAVYYCAVAPYKGTWDSRSSWRRRAYWGQGTQVTVSS | high polyreactivity |
| QVQLVESGGGLVQAGGSLPLSCAASGRIFKDNAMGWYRQAPGNEREMVAAISSGASTSYADSVKGRFTISRDYAKNTVYLQRNSLKPEDTAVYYCNGGGDLYYPGWLFDYWGQGTQVTVSS | low polyreactivity |
| QVQLVESGGGLVQAGGSLPLSCAASGRIIDRYAMGWSRQATGKERDLVASISSGGSTYYADSVKGRFTISRDNAKNTVYLQMNSLKPEDTAVYYCNAEARSRRYRYDYWGQGTQVTVSS | high polyreactivity |
| QVQLVESGGGLVQAGGSLPLSCAASGRTFDVYPMGWYRQAPGKERELVAAINGGGSTYYADSVKGRFTISRDNAKNTVYLQINSLKPEDTALYYCAAKFRAGRSSYYWGQGTQVTVSS | high polyreactivity |
| QVQLVESGGGLVQAGGSLPLSCAASGRTFNFYAMGWYRQAPGKERELVATISGGVSTYYADSVKGPFTISRDNAKITVYLQMNSLKPEDTAVYYCAKDSCYPQWDLDYWGQGTQVTVSS | high polyreactivity |
| QVQLVESGGGLVQAGGSLPLSCAASGRTFRRYGMGWYSNAHGKERELVAGISGYGTTNYADSVKGRFTISRDNAKNTVYLQMNSLKPEDSAVYYCAAGRPYYYTYSGLYYWGQGTQVTVSS | high polyreactivity |
| QVQLVESGGGLVQAGGSLPLSCAASGRTFRSNAMGWYRQAPGKERELVAAISWSGGSTYYADSVKGRFTISRDNAKTSVYFQLNSLKPEDTAVYYCAAYYYTRFEWGQGTQVTVSS | high polyreactivity |
| QVQLVESGGGLVQAGGSLPLSCAASGSIFSKYTMGWYRQAPGKERELDAAISRAGSTYYADSVKGRFTISRDNAKNSVYLQMNSLKPEDTAVYYCNARYRGVYPLIGIRRDYYYWGQGTQVTVSS | high polyreactivity |
| QVQLVESGGGLVQAGGSLPLSCAASGSILYFYAMGWYRQSPGKERELVAAISWTGGSTYYADSVKGRFTISRDNAKNTVYLQMNSLKPEDTAVYYCAAELWYEGYDYWGQGTQVTVSS | high polyreactivity |
| QVQLVESGGGLVQAGGSLPLSCAASGSIVTDNAMGWYRQAPGKERELVAANTSSGNTNYADSVKGRFTISRDNAKNTVDLQMKSLKPEDTAVYYCAADSYYTHWTDWLPVGEDYWGQVTQVTVSS | low polyreactivity |
| QVQLVESGGGLVQAGGSLPLSSAASGITLRYYAMRWYRQAPGKERELVAAMSGRGGGTYYADSVKGRFTISRDNAKNTVYLQMNSLKPEDTAVYYCNAVGQQQVEYEYWGQGTQVTVSS | high polyreactivity |
| QVQLVESGGGLVQAGGSLRCSCAASGFTFYSYAMGWYRQAPGKERELVAAITESGGSTYYADSVKGRFTISRDNAKNTVYLQMNSLKPEDTAVYYCAAQFAQRPQYYYFVWYDYWGQGTQVTVSS | low polyreactivity |
| QVQLVESGGGLVQAGGSLRCSCSASGGIFVNYAMGWSRPAPGKETELVAAISRSGGSTYYADSVKGRFTISRDNANNTVYLQMNSLKPEDTAVYYCAKRRVYYGSRYHYWGEGTQVTVSS | high polyreactivity |
| QVQLVESGGGLVQAGGSLRFSCAASGFTFRKNAMGWYRQAPGKERELVAAISRRGGRTYYADSVKGRFTISRDNAKNTVYLQMNSLKPEDTAVYYCNADEYGGSTGRKGRYNYWGQGTQVTVSS | low polyreactivity |
| QVQLVESGGGLVQAGGSLRFSCAASGFTFVYNAMGWYRQAPGKERELVARISVSGGSTYYADSVKGRFTISRDNAKNTVYLQMNSLKPEDTAVYYCAAELSAPQPDYQQKVDYYYWGQGTQVTVSS | low polyreactivity |
| QVQLVESGGGLVQAGGSLRFSCAASGFTFYLYTMGWYRQAPGKDRELVAAINYSGGTTYYADSVKGRFTISRDNAKNTVYLQMNSLKPEDTAVYYCAATVGYSYNPRKNYYWGQGTQVTVSS | low polyreactivity |
| QVQLVESGGGLVQAGGSLRFSCAASGITFRRYAMGWYRQAPGKERELVASISRGGSTYYADSVKGRFTISRDNAKNTVYLQMNSLKPEDTAVYYCAADVAWRYDYWGQGTQVNVSS | high polyreactivity |
| QVQLVESGGGLVQAGGSLRFSCAASGNILPSNAMGWYRQAPGKERELVAVINSSGNTNYADSVKGRFTISRDNAKKTVYLQMNSLKPEDTAVYYCVIWFRYDRARKLYYWGQGTQVTVSS | high polyreactivity |
| QVQLVESGGGLVQAGGSLRFSCAASGRIFGTYAMGWYRQAPGKERELVAAITQSGGRTYYADSVKGRFTISRDNAKNTVYLQMNSLKPEDTAVYDCNKVTYRGIGLGYDYWGQGTQVTVSS | high polyreactivity |
| QVQLVESGGGLVQAGGSLRFSCAASGRIFRYYAMGWYRQAPGKERELVAGIRTSGGRTYADSVKGRFTISRDNAKNTVYLQMNSLKPEDTAVYYCAAGRRTLSMYYWGQGTQVTVSS | high polyreactivity |

| Sequence | polyreactivity (PSR sort gate) |
| --- | --- |
| QVQLVESGGGLVQAGGSLRFSCAASGRIFTFYAMGWYRQAPGKERELVAAITSGGSTYYADSVKGRFTISRDNAKNTVYLQMNSLKPEDTAVYYCNALHHTQHDYWGQGTQVTVSS | low polyreactivity |
| QVQLVESGGGLVQAGGSLRFSCAASGRIFVNYAMGWYRQAPGKEREFVAAITSSGGSTYYADSVKGRFTISRDNAKNTVYLQMNSLKPEDTAVYYCAARGSLGGWGLRYYWGQGTQVTVSS | high polyreactivity |
| QVQLVESGGGLVQAGGSLRFSCAASGRIYYNAMGWYRQAPGKERELVAAISGSGTRTYYADSVKGRFTISRDNAKNTVFLQMNSLKPEDTAVYYCNAKFFLAATTRYYYWGQGTQVTVSS | high polyreactivity |
| QVQLVESGGGLVQAGGSLRFSCAASGRTFPSKTMGLYRQAPGKERELVAAISKNGGSTYYADSVKGRFTISRDNAKNTVYLQMNSLKPEDTAVYYCNRVRYPRVDYWGQGTQVTVSS | high polyreactivity |
| QVQLVESGGGLVQAGGSLRFSCAASGRTFQYYAMGWSRQAPGKERELVAAISQDGGSTYYADSVKGRFTISRDNAKNTVYLQMNSLKPEDTAVYYCAAEVWRSYGYWGQGTQVTVSS | low polyreactivity |
| QVQLVESGGGLVQAGGSLRFSCAASGSIFDSYAMGWYRHAPGKERELVAAITWSGGITFYADSVKGRYTISRDNAKNTVYLQMNSLKPEDTAVYYCATARSYVGVGGTFVGLYDYWGQGTQVTVSS | low polyreactivity |
| QVQLVESGGGLVQAGGSLRFSCAASGSIFGKNAIGWYRQAPGKERELVAAITRSGGSTYYADSVKGRFTISRDNAKNTVYLQMNSLKPEDTAVYYCNAVRVRVTSHRIRQLDYGYWGQGTQVTVSS | low polyreactivity |
| QVQLVESGGGLVQAGGSLRFSCAASGSIFGSYAMGWYRQAPGKERELVAAITRGGGTTYYADSVKGRFTISRDNAKNTVYLQMNSLKPEDTAVYYCAAKWYHPYGPVYYWGQGTQVTVSS | high polyreactivity |
| QVQLVESGGGLVQAGGSLRFSCAASGSIFGYYSLGWYRQAPGKERELVASITFRDGSTYYADSVKGRFTISRDNAKNTVYLQMNSLKPEDTAVYYCAARYYRRYFSDYDYWGQGTQVTVSS | low polyreactivity |
| QVQLVESGGGLVQAGGSLRFSCAASGSIFPYAMGWSIQEPGKERELVAAITSGVRTNYADSVKGRFTISRDNAKNPVDLQMNSLKPEATEVYYCAVLPRGSNGMDYWGQGTQVTVSS | low polyreactivity |
| QVQLVESGGGLVQAGGSLRFSCAASGSIFRLYAMGWYRLAPGKDRELVATLTSGGNTYADSVKGRFTISRENAKNTVYLQMNSLKPEDTAVYYCHAGQYGYYYKGYDYWGQGTQVTVSS | high polyreactivity |
| QVQLVESGGGLVQAGGSLRFSCAASGSIFYVYAMGWYRQAPGKERELVAAIRWSGGSTYYADSVKGRFTISRDNAKKSVYLQMNSLKPEDTAVYYCAADAIPDSVCYWEYDYWGQGTQVTVSS | low polyreactivity |
| QVQLVESGGGLVQAGGSLRFSCAASGSIYRNNAIGWYRQAPGKERELVAAITSTGTGTYYADSVKGRFTISRDNAKNTVYFQMNSLKPEDTAVYYCAVDDDFEFGYWGQGTQVTVSS | low polyreactivity |
| QVQLVESGGGLVQAGGSLRFSCAASGSTFGTYAMGWYRQAPGKERELVAAITSGGSTDYADSVKGRFTISRDNAKNTVYLQMNSLKPEDTAVYYCNATWELLSYYYLFWGYDYWGQGTQVTVSS | low polyreactivity |
| QVQLVESGGGLVQAGGSLRFSCAASGSTFTTNVMGWYRQAPGKERELVAAISWSSGSTYYADSVKGRFTISRDNAKNTVYLQMNSLKPEDTAVYYCAARLVIFYPYSRYYYWGQGTQVTVSS | high polyreactivity |
| QVQLVESGGGLVQAGGSLRFSCAASGYTVGDYAMGSYRQAPGKERELVAVITRNGGRTYYADSVKGRFTISRDNAKNTVYLQMNSLKPEDTAVYYCNRDTSIRHYNYWGQGTQVTVSS | high polyreactivity |
| QVQLVESGGGLVQAGGSLRFSCAASVFTFYSYAMGSDSQSPGKESEFVAAINQTSGSTTYADSVKGRFTISRDYGKNTVYLKMISLKPEDTAVYYCNAYQYYERYDTYLFRYDYWGQGTQVTVSS | low polyreactivity |
| QVQLVESGGGLVQAGGSLRFSCAYSGRTFFGYAMGWYRQAPGKERELVAAITSAGGRTYYADSVKGRYTISRDNAKNTVYLQMNSLKPEYTAVYYCAATRWYYGLSAFDSWGQGTQVTVSS | high polyreactivity |
| QVQLVESGGGLVQAGGSLRFSCVASGSIFRGNAKGWYRQAPGKERELVASISKGGGSTYYADSVKGRFLISRDNAKNTVYLQMNSLKPEDTAVYYCAARGGLDGIQYDYDYWGQGTQVTVSS | low polyreactivity |
| QVQLVESGGGLVQAGGSLRIICAASGRTFRGYAMGWYRQAPGKERELVAAITSGGSTNYADSVKGRFTISRDNAKNTVYLQMHSLKPEDTAVYYCNRDTSKYGLWRYIYDYWGQGTQVTVSS | low polyreactivity |
| QVQLVESGGGLVQAGGSLRIICAASGRTFSYYAMGWYRQAPGKERELVAVITSSGGSTSYADSVKGRFTISRDNAKNTVYLQMKSLKPEDTAVYYCAADPLAVSWAYYLFGVDYWGHGTQVTVSS | high polyreactivity |
